The target in assay [1] is gp120 JR-FL (HIV-1 isolate JR-FL). In words: ELISA, antigen coated on plate, soluble Fab titrated, Langmuir fit. On the technique in general: ELISA stands for enzyme-linked immunosorbent assay.
The target in assay [2] is sCD4-gp120 89.6 complex (HIV-1 isolate 89.6) (UniProt P01730). The description is as above.
Assay [3] addresses gp120 89.6 (HIV-1 isolate 89.6). The description is as above.
The target in assay [4] is gp120 IIIB (HIV-1 isolate IIIB) (UniProt P04578). The description is as above.
Assay [5] concerns the target Env UG037.8 on 293 cells (HIV-1 isolate UG037.8, clade A). In words: cell-based or functional assay.
The target in assay [6] is Env clone Z2Z6 on pseudotype virus (HIV-1 isolate Z2Z6, Clade D). In words: cell-based or functional assay.
For assay [7], the target named is Env clone VI1273 on pseudotype virus (HIV-1 isolate VI1273). Put plainly: cell-based or functional assay.
The target of assay [8] is Env UG975.10 on 293 cells (HIV-1 isolate UG975.10, clade G). Put plainly: cell-based or functional assay.
Assay [9] deals with Env clone TH966 on pseudotype virus (HIV-1 isolate TH966). Put plainly: cell-based or functional assay.
For assay [10], the target named is Env clone VI14004 on pseudotype virus (HIV-1 isolate VI14004, Clade F). Put plainly: cell-based or functional assay.
In assay [11] the target is Env clone MN-TCLA on pseudotype virus (HIV-1 isolate MN-TCLA) (UniProt P05877). In words: cell-based or functional assay.
Chain of UniProt P05877 (P05877 32-856 limits assumed): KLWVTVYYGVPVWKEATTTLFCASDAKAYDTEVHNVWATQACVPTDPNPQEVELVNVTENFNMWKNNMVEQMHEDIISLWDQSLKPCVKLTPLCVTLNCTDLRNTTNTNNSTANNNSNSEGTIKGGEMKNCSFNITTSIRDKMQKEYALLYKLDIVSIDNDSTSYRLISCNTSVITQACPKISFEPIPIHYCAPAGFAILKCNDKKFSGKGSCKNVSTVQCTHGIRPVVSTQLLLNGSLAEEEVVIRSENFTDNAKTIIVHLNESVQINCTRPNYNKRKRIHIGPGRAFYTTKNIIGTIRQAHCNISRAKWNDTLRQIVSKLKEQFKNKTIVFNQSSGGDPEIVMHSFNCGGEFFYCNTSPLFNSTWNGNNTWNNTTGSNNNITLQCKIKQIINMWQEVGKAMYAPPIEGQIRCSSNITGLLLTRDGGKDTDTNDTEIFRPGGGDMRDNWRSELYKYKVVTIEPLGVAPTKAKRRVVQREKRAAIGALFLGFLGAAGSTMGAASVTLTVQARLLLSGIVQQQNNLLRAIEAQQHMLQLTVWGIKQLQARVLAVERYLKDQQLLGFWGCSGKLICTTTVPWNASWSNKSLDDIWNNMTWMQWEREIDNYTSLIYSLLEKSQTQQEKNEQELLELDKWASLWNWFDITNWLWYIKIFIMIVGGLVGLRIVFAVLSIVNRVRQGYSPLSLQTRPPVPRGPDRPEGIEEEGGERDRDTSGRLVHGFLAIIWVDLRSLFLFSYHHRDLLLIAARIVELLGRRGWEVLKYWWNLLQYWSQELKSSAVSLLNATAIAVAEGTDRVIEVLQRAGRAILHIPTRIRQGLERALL
For assay [12], the target named is Env NL4-3 on 293 cells (HIV-1 NL4-3, clade B). In words: cell-based or functional assay.
The target of assay [13] is Env clone P37 on pseudotype virus (HIV-1 isolate P37). In words: cell-based or functional assay.
For assay [14], the target named is Env clone R2 on pseudotype virus (HIV-1 isolate R2, Clade B). Put plainly: cell-based or functional assay.
The target of assay [15] is Env 89.6 on 293 cells (HIV-1 isolate 89.6, clade B). Put plainly: cell-based or functional assay.
Assay [16] addresses Env TH022.4 on 293 cells (HIV-1 isolate TH022.4, clade EA). In words: cell-based or functional assay.
Assay [17] concerns the target Env clone V5 on pseudotype virus (HIV-1 isolate V5). In words: cell-based or functional assay.
Assay [18] concerns the target Env clone VI1399 on pseudotype virus (HIV-1 isolate VI1399). Put plainly: cell-based or functional assay.
Assay [19] deals with Env clone GX-E14 on pseudotype virus (HIV-1 isolate GX-E14, Clade E). In words: cell-based or functional assay.
Assay [20] has as its target Env BR025.9 on 293 cells (HIV-1 isolate BR025.9, clade C). Put plainly: cell-based or functional assay.
Assay [21] deals with Env clone GX-C44 on pseudotype virus (HIV-1 isolate GX-C44, Clade C). Put plainly: cell-based or functional assay.
In assay [22] the target is Env clone 92RW020.5 on pseudotype virus (HIV-1 isolate 92RW020.5, Clade A). In words: cell-based or functional assay.
The target in assay [23] is Env RW020.5 on 293 cells (HIV-1 isolate RW020.5, clade A). Put plainly: cell-based or functional assay.
In assay [24] the target is Env US005.11 on 293 cells (HIV-1 isolate US005.11, clade B). In words: cell-based or functional assay.
For assay [25], the target named is Env BR029.2 on 293 cells (HIV-1 isolate BR029.2, clade F). In words: cell-based or functional assay.
Assay [26] has as its target Env HT593.1 on 293 cells (HIV-1 isolate HT593.1, clade B). Put plainly: cell-based or functional assay.
The target of assay [27] is Env US715.6 on 293 cells (HIV-1 isolate US715.6, clade B). In words: cell-based or functional assay.
The target in assay [28] is gp120 IIIB (HIV-1 isolate IIIB) (UniProt P04578). Put plainly: ELISA, soluble Fab titrated on Env (direct or D7324 capture format not specified); IIIB* is gp120.
In assay [29] the target is gp140 89.6 (HIV-1 isolate 89.6). Put plainly: ELISA, soluble Fab titrated on Env (direct or D7324 capture format not specified).

By Kd is commonly meant the concentration at which binding is half-saturated. Read a low Kd as a tighter complex. What is called EC50 is the concentration that produces a half-maximal response. Low values mean an effect from little substance, high ones a need for much substance.

Fab m18: the Kd in assay [1] came out at 0.9 nM; in [2], 0.9 nM; in [3], 1 nM; in [4], 0.08 nM. In addition, the % of fusion inhibition, cell-cell fusion assay, Fab at 50 µg/ml in [5] is 34%; in assay [8], 56%; in [12], 92%; in [15] it was 100%; in [16] it was 93%; in assay [20], 86%. The % of fusion inhibition, cell-cell fusion assay, Fab at 50 µg/ml in assay [23] stood at 25%; in [24] it was 93%; in [25], 86%; in assay [26] it was 39%; in [27], 97%. In addition, the Concentration of Fab at the 50% neutralization endpoint, pseudovirus assay in assay [6] is 25 µg/mL; in assay [7], 25 µg/mL; in assay [9], > 100 µg/mL; in assay [10], < 2 µg/mL; in assay [11], < 1.6 µg/mL; in assay [13] it was 100 µg/mL. For the same substance, the Concentration of Fab at the 50% neutralization endpoint, pseudovirus assay in [14] is 1.6 µg/mL; in assay [17], < 2 µg/mL; in assay [18] it was > 100 µg/mL; in assay [19] it was > 100 µg/mL; in [21] it was > 25 µg/mL; in assay [22], 3 µg/mL. For the same substance, the EC50 was 0.48 nM in assay [28] and 1.17 nM in assay [29].
With Fab X5, the % of fusion inhibition, cell-cell fusion assay, Fab at 50 µg/ml turned out to be 34% in assay [5]; 19% in assay [8]; 83% in assay [12]; 93% in assay [15]; 43% in assay [16]; 71% in assay [20]. Further, the % of fusion inhibition, cell-cell fusion assay, Fab at 50 µg/ml in assay [23] was 45%; in assay [24] it was 72%; in [25], 36%; in assay [26] it was 27%; in assay [27], 28%.
For Fab m14, the Kd in [1] amounted to 0.9 nM; in assay [2], 7.3 nM; in assay [3] it was 5.4 nM. In addition, the % of fusion inhibition, cell-cell fusion assay, Fab at 50 µg/ml was 100% in assay [5]; 22% in [8]; 96% in assay [12]; 100% in assay [15]; 100% in assay [16]; 71% in [20]. Also, the % of fusion inhibition, cell-cell fusion assay, Fab at 50 µg/ml in [23] is 31%; in assay [24] it was 95%; in [25], 71%; in assay [26], 78%; in [27], 35%. Further, the Concentration of Fab at the 50% neutralization endpoint, pseudovirus assay is 50 µg/mL in assay [6]; 3.1 µg/mL in [7]; > 100 µg/mL in [9]; 2.24 µg/mL in assay [11]; 2.24 µg/mL in assay [14]; > 100 µg/mL in [18]. Besides, the figures for the Concentration of Fab at the 50% neutralization endpoint, pseudovirus assay in [19] and in assay [21] were 100 µg/mL and 8.8 µg/mL, respectively.

The values are drawn from patent US20100317837A1.
